Measured values published in patent US20240294914A1, “COMPOSITIONS AND METHODS FOR TREATING HEPATITIS B VIRUS INFECTION” (priority 2021, published 2024).
Strand notation (5' to 3'): a small letter for the sugar, then the base; units joined by * are phosphorothioate-linked, units joined directly phosphodiester-linked; [ ] holds rarer units or linkages, { } end groups; capitals alone tell only the bases. m = 2'-O-methyl; r = 2'-OH (RNA)

B1: cas12b-100: guide RNA SEQ ID NO: 385 (nucleic acid)
guide: mG*mU*mU*rCrUrGrUrCrUrUrUrUrGrGrUrCrArGrGrArCrArArCrCrGrUrCrUrArGrCrUrArUrArArGrUrGrCrUrGrCrArGrGrGrUrGrUrGrArGrArArArCrUrCrCrUrArUrUrGrCrUrGrGrArCrGrArUrGrUrCrUrCrUrUrArCrGrArGrGrCrArUrUrArGrCrArCrUrUrCrUrUrCrUrArGrGrGrGrArCrCrUrGrCrCrU
B2: cas12b-147: guide RNA SEQ ID NO: 386 (nucleic acid)
guide: mG*mU*mU*rCrUrGrUrCrUrUrUrUrGrGrUrCrArGrGrArCrArArCrCrGrUrCrUrArGrCrUrArUrArArGrUrGrCrUrGrCrArGrGrGrUrGrUrGrArGrArArArCrUrCrCrUrArUrUrGrCrUrGrGrArCrGrArUrGrUrCrUrCrUrUrArCrGrArGrGrCrArUrUrArGrCrArCrGrArGrGrArCrArArArCrGrGrGrCrArArCrArUrA
B3: cas12b-154: guide RNA SEQ ID NO: 387 (nucleic acid)
guide: mG*mU*mU*rCrUrGrUrCrUrUrUrUrGrGrUrCrArGrGrArCrArArCrCrGrUrCrUrArGrCrUrArUrArArGrUrGrCrUrGrCrArGrGrGrUrGrUrGrArGrArArArCrUrCrCrUrArUrUrGrCrUrGrGrArCrGrArUrGrUrCrUrCrUrUrArCrGrArGrGrCrArUrUrArGrCrArCrUrUrGrUrCrArArCrArArGrArArArArArCrCrCrC
B4: cas12b-122b: guide RNA SEQ ID NO: 391 (nucleic acid)
guide: GTTCTGTCTTTTGGTCAGGACAACCGTCTAGCTATAAGTGCTGCAGGGTGTGAGAAACTCCTATTGCTGGACGATGTCTCTTACGAGGCATTAGCACCACGCACGCGCTGATGGCCC
modifications: sugars from the 5' end m3 r114, linkages s3 o113 (s phosphorothioate, o phosphodiester), T or U not given here
B5: cas12b-124: guide RNA SEQ ID NO: 389 (nucleic acid)
guide: mG*mU*mU*rCrUrGrUrCrUrUrUrUrGrGrUrCrArGrGrArCrArArCrCrGrUrCrUrArGrCrUrArUrArArGrUrGrCrUrGrCrArGrGrGrUrGrUrGrArGrArArArCrUrCrCrUrArUrUrGrCrUrGrGrArCrGrArUrGrUrCrUrCrUrUrArCrGrArGrGrCrArUrUrArGrCrArCrCrCrGrGrGrCrArArCrGrGrGrGrUrArArArGrGrU
B6: cas12b-17: guide RNA SEQ ID NO: 382 (nucleic acid)
guide: mG*mU*mU*rCrUrGrUrCrUrUrUrUrGrGrUrCrArGrGrArCrArArCrCrGrUrCrUrArGrCrUrArUrArArGrUrGrCrUrGrCrArGrGrGrUrGrUrGrArGrArArArCrUrCrCrUrArUrUrGrCrUrGrGrArCrGrArUrGrUrCrUrCrUrUrArCrGrArGrGrCrArUrUrArGrCrArCrGrGrGrGrCrCrArArGrUrCrUrGrUrArCrArGrCrA
B7: cas12b-30: guide RNA SEQ ID NO: 383 (nucleic acid)
guide: mG*mU*mU*rCrUrGrUrCrUrUrUrUrGrGrUrCrArGrGrArCrArArCrCrGrUrCrUrArGrCrUrArUrArArGrUrGrCrUrGrCrArGrGrGrUrGrUrGrArGrArArArCrUrCrCrUrArUrUrGrCrUrGrGrArCrGrArUrGrUrCrUrCrUrUrArCrGrArGrGrCrArUrUrArGrCrArCrGrCrUrGrArCrGrCrArArCrCrCrCrCrArCrUrGrG
B8: cas12b-42: guide RNA SEQ ID NO: 384 (nucleic acid)
guide: mG*mU*mU*rCrUrGrUrCrUrUrUrUrGrGrUrCrArGrGrArCrArArCrCrGrUrCrUrArGrCrUrArUrArArGrUrGrCrUrGrCrArGrGrGrUrGrUrGrArGrArArArCrUrCrCrUrArUrUrGrCrUrGrGrArCrGrArUrGrUrCrUrCrUrUrArCrGrArGrGrCrArUrUrArGrCrArCrGrGrArGrCrUrArCrUrGrUrGrGrArGrUrUrArCrU
B9: cas12b-35: guide RNA SEQ ID NO: 388 (nucleic acid)
guide: mG*mU*mU*rCrUrGrUrCrUrUrUrUrGrGrUrCrArGrGrArCrArArCrCrGrUrCrUrArGrCrUrArUrArArGrUrGrCrUrGrCrArGrGrGrUrGrUrGrArGrArArArCrUrCrCrUrArUrUrGrCrUrGrGrArCrGrArUrGrUrCrUrCrUrUrArCrGrArGrGrCrArUrUrArGrCrArCrCrCrCrArArGrGrUrCrUrUrArCrArUrArArGrArG
B10: cas12b-127: guide RNA SEQ ID NO: 390 (nucleic acid)
guide: mG*mU*mU*rCrUrGrUrCrUrUrUrUrGrGrUrCrArGrGrArCrArArCrCrGrUrCrUrArGrCrUrArUrArArGrUrGrCrUrGrCrArGrGrGrUrGrUrGrArGrArArArCrUrCrCrUrArUrUrGrCrUrGrGrArCrGrArUrGrUrCrUrCrUrUrArCrGrArGrGrCrArUrUrArGrCrArCrArCrArCrArGrArArArGrGrCrCrUrUrGrUrArArG
B11: cas12b-4: guide RNA SEQ ID NO: 379 (nucleic acid)
guide: mG*mU*mU*rCrUrGrUrCrUrUrUrUrGrGrUrCrArGrGrArCrArArCrCrGrUrCrUrArGrCrUrArUrArArGrUrGrCrUrGrCrArGrGrGrUrGrUrGrArGrArArArCrUrCrCrUrArUrUrGrCrUrGrGrArCrGrArUrGrUrCrUrCrUrUrArCrGrArGrGrCrArUrUrArGrCrArCrArCrArArGrArArUrCrCrUrCrArCrArArUrArCrC
B12: G-200: guide RNA SEQ ID NO: 5498 (nucleic acid)
guide: GUGAAAAAGUUGCAUGGUGCGUUUUAGAGCUAGAAAUAGCAAGUUAAAAUAAGGCUAGUCCGUUAUCAACUUGAAAAAGUGGCACCGAGUCGGUGCUUUU
modifications: sugars from the 5' end m3 r93 m3 r1, linkages s3 o93 s3 (s phosphorothioate, o phosphodiester), T or U not given here
B13: G-553: guide RNA SEQ ID NO: 5506 (nucleic acid)
guide: GGGCAACGGGGUAAAGGUUCGUUUUAGAGCUAGAAAUAGCAAGUUAAAAUAAGGCUAGUCCGUUAUCAACUUGAAAAAGUGGCACCGAGUCGGUGCUUUU
modifications: sugars from the 5' end m3 r93 m3 r1, linkages s3 o93 s3 (s phosphorothioate, o phosphodiester), T or U not given here
B14: G-251: guide RNA SEQ ID NO: 5504 (nucleic acid)
guide: CAGGUAUUGUUUACACAGAAGUUUUAGAGCUAGAAAUAGCAAGUUAAAAUAAGGCUAGUCCGUUAUCAACUUGAAAAAGUGGCACCGAGUCGGUGCUUUU
modifications: sugars from the 5' end m3 r93 m3 r1, linkages s3 o93 s3 (s phosphorothioate, o phosphodiester), T or U not given here
B15: G-845: guide RNA SEQ ID NO: 5508 (nucleic acid)
guide: UUUGAAGUAUGCCUCAAGGUGUUUUAGAGCUAGAAAUAGCAAGUUAAAAUAAGGCUAGUCCGUUAUCAACUUGAAAAAGUGGCACCGAGUCGGUGCUUUU
modifications: sugars from the 5' end m3 r93 m3 r1, linkages s3 o93 s3 (s phosphorothioate, o phosphodiester), T or U not given here
B16: G-159: guide RNA SEQ ID NO: 5488 (nucleic acid)
guide: GCAAACACUUGGCACAGACCGUUUUAGAGCUAGAAAUAGCAAGUUAAAAUAAGGCUAGUCCGUUAUCAACUUGAAAAAGUGGCACCGAGUCGGUGCUUUU
modifications: sugars from the 5' end m3 r93 m3 r1, linkages s3 o93 s3 (s phosphorothioate, o phosphodiester), T or U not given here
B17: G-772: guide RNA SEQ ID NO: 5501 (nucleic acid)
guide: UGGCGAUUGGUGGAGGCAGGGUUUUAGAGCUAGAAAUAGCAAGUUAAAAUAAGGCUAGUCCGUUAUCAACUUGAAAAAGUGGCACCGAGUCGGUGCUUUU
modifications: sugars from the 5' end m3 r93 m3 r1, linkages s3 o93 s3 (s phosphorothioate, o phosphodiester), T or U not given here
B18: G-474: guide RNA SEQ ID NO: 5509 (nucleic acid)
guide: GAUUAAAGGUCUUUGUACUAGUUUUAGAGCUAGAAAUAGCAAGUUAAAAUAAGGCUAGUCCGUUAUCAACUUGAAAAAGUGGCACCGAGUCGGUGCUUUU
modifications: sugars from the 5' end m3 r93 m3 r1, linkages s3 o93 s3 (s phosphorothioate, o phosphodiester), T or U not given here

test system: HBV genome in HEK293T cells transduced with a lentiviral vector; assay: Base editing efficiency in Hek293-lentiHBV system (PCR amplicons sequenced on MiSeq); type: cell-based, Hepatitis B virus; parameters: Editing Efficiency 2 (%): concentration or dose not given beside the values; details: average of 3, base editor Cas12b-ABE, plasmid transfection, four days

Molecule	Average Editing Efficiency (%)
B1	5.18%
B2	10.83%
B3	27.74%
B4	5.51%
B5	17.47%
B6	35.07%
B7	0.02%
B8	28.99%
B9	0.35%
B10	42.25%
B11	20.00%

same assay, conditions: base editor ABE8.8-m

Molecule	% Editing average
B12	59%
B13	64%

same assay, conditions: base editor Abe7.10

Molecule	% Editing average
B14	77%
B15	70%
B16	51%
B17	66%

same assay, conditions: base editor VRQR-ABE

Molecule	% Editing average
B18	74%

same assay, conditions: replicate 1, base editor Cas12b-ABE, plasmid transfection, four days

Molecule	Editing Efficiency 1 (%)
B1	7.97%
B2	13.02%
B3	16.12%
B4	8.22%
B5	29.50%
B6	26.42%
B7	0.02%
B8	29.48%
B9	0.31%
B10	50.16%
B11	14.70%

same assay, conditions: replicate 2, base editor Cas12b-ABE, plasmid transfection, four days

Molecule	Editing Efficiency 2 (%)
B1	4.21%
B2	4.44%
B3	30.06%
B4	3.91%
B5	11.78%
B6	34.50%
B7	0.02%
B8	23.94%
B9	0.04%
B10	37.40%
B11	26.37%

same assay, conditions: replicate 3, base editor Cas12b-ABE, plasmid transfection, four days

Molecule	Editing Efficiency 3 (%)
B1	3.35%
B2	15.03%
B3	37.02%
B4	4.39%
B5	11.15%
B6	44.29%
B7	0.01%
B8	33.54%
B9	0.70%
B10	39.21%
B11	18.93%
